Results: patent US20190169306A1 (UNIVERSITY OF SOUTHAMPTON, published 2019)

Molecular target: T1, human CD27 (human, UniProt P26842 20-260)
T1 sequence (looked up): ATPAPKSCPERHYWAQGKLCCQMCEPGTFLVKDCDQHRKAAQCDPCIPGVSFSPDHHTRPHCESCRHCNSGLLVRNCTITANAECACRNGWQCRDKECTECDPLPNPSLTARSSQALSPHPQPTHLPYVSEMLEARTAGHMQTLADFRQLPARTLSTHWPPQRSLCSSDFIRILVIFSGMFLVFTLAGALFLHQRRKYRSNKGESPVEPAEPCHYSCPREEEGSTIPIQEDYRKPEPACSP
Assay: cell-based or functional assay

B1: varlilumab (anti-human CD27 mAb) (antibody, V domains shown)
VH: QVQLVESGGGVVQPGRSLRLSCAASGFTFSSYDMHWVRQAPGKGLEWVAVIWYDGSNKYYADSVKGRFTISRDNSKNTLYLQMNSLRAEDTAVYYCARGSGNWGFFDYWGQGTLVTVSS
VL: DIQMTQSPSSLSASVGDRVTITCRASQGISRWLAWYQQKPEKAPKSLIYAASSLQSGVPSRFSGSGSGTDFTLTISSLQPEDFATYYCQQYNTYPRTFGQGTKVEIK
level of CD14 on monocytes in human PBMC cultures after 48 hours (flow cytometry): 2 fold
monocyte number in human PBMC cultures after 48 hours with 5 µg/mL mAb (flow cytometry): 3 fold
